Reference: US12448423 (Xencor, dated 2025)

T1: NKG2D (affinity ladder and epitope binning; construct not stated) (UniProt P26718 73-216, limits assumed)
T1 sequence (looked up): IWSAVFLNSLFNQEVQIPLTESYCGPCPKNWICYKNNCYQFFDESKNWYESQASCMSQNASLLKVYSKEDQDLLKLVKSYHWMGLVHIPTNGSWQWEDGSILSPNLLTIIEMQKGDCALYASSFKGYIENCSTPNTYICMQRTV


Legend:
XENP27145 = biological target: T2, XENP27145 (human); assay: Octet (BLI): HIS-tagged human NKG2D captured on HIS1K biosensors, dipped into multiple concentrations of the fusion; global fit, 1:1 Langmuir model
T2 construct: also called NKG2D-targeted IL-15(N4D/N65D)/Rα-Fc fusion with targeting arm based on MS

XENP27197 = biological target: T3, XENP27197 (human, UniProt P0DOX7 1-214); assay: as above
T3 construct: scIL-15/Rα x Fab format; also called NKG2D-targeted IL-15/Rα-Fc fusion based on 1D7B4 and IL-15(N4D/N65D) variant

[1] = biological target: T1, NKG2D (affinity ladder and epitope …); assay: affinity ladder; method and format not stated
[2] = biological target: T4, human CD8 (captured on the Octet biosensor) (human, UniProt P01732 22-182, limits assumed); assay: Octet (BLI); human CD8 captured, dipped into multiple concentrations of the one-arm mAb
T4 construct: Construct not described; also called recombinant human CD8a

[3] = biological target: T5, cynomolgus CD8 (captured on the Octet biosensor) (cynomolgus); assay: method not stated in the sentence (Octet in the same example)
T5 construct: Construct not described; also called cyno CD8; cyno CD8a

[4] = biological target: T5, cynomolgus CD8 (captured on the Octet …); assay: Octet (BLI); cynomolgus CD8 captured, dipped into multiple concentrations of the one-arm mAb

T4 sequence (P01732 22-182 limits assumed): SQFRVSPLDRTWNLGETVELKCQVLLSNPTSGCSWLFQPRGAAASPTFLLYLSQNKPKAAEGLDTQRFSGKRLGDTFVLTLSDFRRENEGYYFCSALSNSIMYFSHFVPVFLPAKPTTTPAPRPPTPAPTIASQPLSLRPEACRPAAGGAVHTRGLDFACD

| Binder | Kd (XENP27145) [nM] | koff (XENP27145) [s⁻¹] | kon (XENP27145) [M⁻¹ s⁻¹] | Kd (XENP27197) [nM] | koff (XENP27197) [s⁻¹] | kon (XENP27197) [M⁻¹ s⁻¹] | Kd [1] [nM] | Kd [2] [nM] | koff [2] [s⁻¹] | kon [2] [M⁻¹ s⁻¹] | Kd [3] [nM] | Kd [4] [nM] | koff [4] [s⁻¹] | kon [4] [M⁻¹ s⁻¹] |
| --- | --- | --- | --- | --- | --- | --- | --- | --- | --- | --- | --- | --- | --- | --- |
| HIS-tagged human NKG2D (receptor, UniProt P26718 73-216, looked up, Captured on HIS1K biosensors; not shown: HIS tag) IWSAVFLNSLFNQEVQIPLTESYCGPCPKNWICYKNNCYQFFDESKNWYESQASCMSQNASLLKVYSKEDQDLLKLVKSYHWMGLVHIPTNGSWQWEDGSILSPNLLTIIEMQKGDCALYASSFKGYIENCSTPNTYICMQRTV | 2.45 | 0.00123 | 502000 | 8.66 | 0.00325 | 375000 | – | – | – | – | – | – | – | – |
| KYK-1.0 (anti-NKG2D antigen binding domain) (antibody, V domains shown, also called KYK-1.0[NKG2D]_H1L1) VH: EVQLVESGGGVVQPGGSLRLSCAASGFTFSSYGMHWVRQAPGKGLEWVAFIRYDGSNKYYADSVKGRFTISRDNSKNTKYLQMNSLRAEDTAVYYCAKDRFGYYLDYWGQGTLVTVSS VL: QPVLTQPSSVSVAPGETARIPCGGDDIETKSVHWYQQKPGQAPVLVIYDDDDRPSGIPERFFGSNSGNTATLSISRVEAGDEADYYCQVWDDNNDEWVFGGGTQLTVL | – | – | – | – | – | – | 170 | – | – | – | – | – | – | – |
| humanized OKT8 variant (H2L1) (antibody, also called OKT8_H2L1) heavy: QVQLVQSGAEVKKPGASVKVSCKASGFNIKDTYIHWVRQAPGKGLEWMGRIDPANDNTLYASKFQGRVTITADTSINTAYMELSRLRSDDTAVYYCGRGYGYYVFDHWGQGTTVTVSSASTKGPSVFPLAPSSKSTSGGTAALGCLVKDYFPEPVTVSWNSGALTSGVHTFPAVLQSSGLYSLSSVVTVPSSSLGTQTYICNVNHKPSNTKVDKKVEPKSCDKTHTCPPCPAPPVAGPSVFLFPPKPKDTLMISRTPEVTCVVVDVKHEDPEVKFNWYVDGVEVHNAKTKPREEQYNSTYRVVSVLTVLHQDWLNGKEYKCKVSNKALPAPIEKTISKAKGQPREPQVYTLPPSREQMTKNQVKLTCLVKGFYPSDIAVEWESNGQPENNYKTTPPVLDSDGSFFLYSKLTVDKSRWQQGNVFSCSVMHEALHNHYTQKSLSLSPGK light: DIKMTQSPSSLSASVGDRVTITCRTSRSISQYLAWYQEKPGKTNKLLIYSGSTLQSGIPSRFSGSGSGTDFTLTISSLQPEDFATYYCQQHNENPLTFGAGTKLEIKRTVAAPSVFIFPPSDEQLKSGTASVVCLLNNFYPREAKVQWKVDNALQSGNSQESVTEQDSKDSTYSLSSTLTLSKADYEKHKVYACEVTHQGLSSPVTKSFNRGEC Fc: EPKSSDKTHTCPPCPAPPVAGPSVFLFPPKPKDTLMISRTPEVTCVVVDVKHEDPEVKFNWYVDGVEVHNAKTKPREEEYNSTYRVVSVLTVLHQDWLNGKEYKCKVSNKALPAPIEKTISKAKGQPREPQVYTLPPSREEMTKNQVSLTCDVSGFYPSDIAVEWESDGQPENNYKTTPPVLDSDGSFFLYSKLTVDKSRWEQGDVFSCSVMHEALHNHYTQKSLSLSPGK | – | – | – | – | – | – | – | 12 | 0.006 | 500000 | 200 | 202 | 0.0699 | 347000 |
| XENP26231 (antibody, V domains shown, also called OKT8_H2.154_L1.103 one-arm mAb) VH: QVQLVQSGAEVKKPGASVKVSCKASGFNIKDTYIHWVRQAPGKGLEWMGRIDPDNGETLYASKFQGRVTITADTSINTAYMELSRLRSDDTAVYYCGRGYGKYVFDHWGQGTTVTVSS VL: AIKMTQSPSSLSASVGDRVTITCRTSRSISKYLAWYQEKPGKTNKLLIYSGSTLQSGIPSRFSGSGSGTDFTLTISSLQPEDFATYYCQQHNENPLTFGAGTKLEIK | – | – | – | – | – | – | – | 95.5 | 0.0226 | 236000 | – | 95.9 | 0.00887 | 92500 |
| XENP26235 (antibody, V domains shown, also called OKT8_H2.158_L1.103 one-arm mAb) VH: QVQLVQSGAEVKKPGASVKVSCKASGFNIKDTYIHWVRQAPGKGLEWMGRIDPDNGETLYASKFQGRVTMTADTSINTAYMELSRLRSDDTAVYYCGRGYGYYYFDHWGQGTTVTVSS VL: AIKMTQSPSSLSASVGDRVTITCRTSRSISKYLAWYQEKPGKTNKLLIYSGSTLQSGIPSRFSGSGSGTDFTLTISSLQPEDFATYYCQQHNENPLTFGAGTKLEIK | – | – | – | – | – | – | – | 1.38 | 0.000992 | 718000 | – | 33.5 | 0.00477 | 143000 |
| XENP26241 (antibody, V domains shown, also called OKT8_H2.164_L1.103 one-arm mAb) VH: QVQLVQSGAEVKKPGASVKVSCKASGFNIKDTYIHWVRQAPGKGLEWMGRIDPDNDETLYASKFQGRVTMTADTSINTAYMELSRLRSDDTAVYYCGRGYGKYVFDHWGQGTTVTVSS VL: AIKMTQSPSSLSASVGDRVTITCRTSRSISKYLAWYQEKPGKTNKLLIYSGSTLQSGIPSRFSGSGSGTDFTLTISSLQPEDFATYYCQQHNENPLTFGAGTKLEIK | – | – | – | – | – | – | – | 55.6 | 0.0148 | 265000 | – | 67 | 0.00589 | 88000 |
| XENP26234 (antibody, V domains shown, also called OKT8_H2.157_L1.103 one-arm mAb) VH: QVQLVQSGAEVKKPGASVKVSCKASGFNIKDTYIHWVRQAPGKGLEWMGRIDPDNGETLYASKFQGRVTMTADTSINTAYMELSRLRSDDTAVYYCGRGYGKYVFDHWGQGTTVTVSS VL: AIKMTQSPSSLSASVGDRVTITCRTSRSISKYLAWYQEKPGKTNKLLIYSGSTLQSGIPSRFSGSGSGTDFTLTISSLQPEDFATYYCQQHNENPLTFGAGTKLEIK | – | – | – | – | – | – | – | 48.2 | 0.0124 | 258000 | – | 55.6 | 0.00448 | 80600 |
| XENP26243 (antibody, V domains shown, also called OKT8_H2.166_L1.103 one-arm mAb) VH: QVQLVQSGAEVKKPGASVKVSCKASGFNIKDTYIHWVRQAPGKGLEWMGRIDPDNDETLYASKFQGRVTMTADTSINTAYMELSRLRSDDTAVYYCGRGWGYYVFDHWGQGTTVTVSS VL: AIKMTQSPSSLSASVGDRVTITCRTSRSISKYLAWYQEKPGKTNKLLIYSGSTLQSGIPSRFSGSGSGTDFTLTISSLQPEDFATYYCQQHNENPLTFGAGTKLEIK | – | – | – | – | – | – | – | 3.14 | 0.00196 | 626000 | – | 55.9 | 0.0108 | 192000 |
| XENP26238 (antibody, V domains shown, also called OKT8_H2.161_L1.103 one-arm mAb) VH: QVQLVQSGAEVKKPGASVKVSCKASGFNIKDTYIHWVRQAPGKGLEWMGRIDPDNDETLYASKFQGRVTITADTSINTAYMELSRLRSDDTAVYYCGRGYGKYVFDHWGQGTTVTVSS VL: AIKMTQSPSSLSASVGDRVTITCRTSRSISKYLAWYQEKPGKTNKLLIYSGSTLQSGIPSRFSGSGSGTDFTLTISSLQPEDFATYYCQQHNENPLTFGAGTKLEIK | – | – | – | – | – | – | – | 96.6 | 0.0262 | 271000 | – | 107 | 0.00894 | 83900 |
